Our source for the stoichiometry N values is paper PMC7948970.

What all share (test): SEC; analytical gel filtration on an XBridge BEH SEC 200 Å 3.5 μm column; molecular weight estimated from a standard curve (thyroglobulin, immunoglobin, BSA, myoglobulin)
Assay [1] concerns the target Staphylococcus aureus oleate hydratase (OhyA) (Staphylococcus aureus).
Assay [2] concerns the target Staphylococcus aureus oleate hydratase OhyA(E82A) (Staphylococcus aureus).
In assay [3] the target is Staphylococcus aureus oleate hydratase OhyA(Y201F) (Staphylococcus aureus).

One may read the stoichiometry N as the number of molecules, sites or subunits per partner or assembly. As for “Staphylococcus aureus oleate hydratase (OhyA) (enzyme)”, in assay [1], the stoichiometry N was 2.
Take “Staphylococcus aureus oleate hydratase OhyA(E82A) (enzyme)”: the stoichiometry N in assay [2] was 2.
For “Staphylococcus aureus oleate hydratase OhyA(Y201F) (enzyme)”, the stoichiometry N in assay [3] was 2.
